In article PMC9060471, “Oleic acid is an endogenous ligand of TLX/NR2E1 that triggers hippocampal neurogenesis” (Proceedings of the National Academy of Sciences of the …, 2022):

Target: T1, 6xHis-TLX ligand-binding domain (UniProt Q9Y466 155-385)
T1 construct: Construct limits, species and expression host should stand in the SI Appendix (methods); also called TLX LBD; NR2E1; source: purified
Assay: AlphaScreen or HTRF; ALPHA competition experiments in the presence of saturating 18:1ω9
Conditions: both partners purified

T1 sequence (Q9Y466 155-385): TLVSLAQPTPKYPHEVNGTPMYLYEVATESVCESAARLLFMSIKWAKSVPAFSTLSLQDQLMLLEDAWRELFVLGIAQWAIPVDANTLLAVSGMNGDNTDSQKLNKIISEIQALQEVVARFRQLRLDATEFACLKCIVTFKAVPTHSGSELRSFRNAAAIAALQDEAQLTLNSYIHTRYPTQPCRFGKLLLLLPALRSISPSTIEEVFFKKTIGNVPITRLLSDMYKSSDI

B1: receptor-interaction domain from NCOA3 (domain or fragment, UniProt Q9Y6Q9 621-821, looked up)
chain: LLQLLTCSSDDRGHSSLTNSPLDSSCKESSVSVTSPSGVSSSTSGGVSSTSNMHGSLLQEKHRILHKLLQNGNSPAEVAKITAEATGKDTSSITSCGDGNVVKQEQLSPKKKENNALLRYLLDRDDPSDALSKELQPQVEGVDNKMSQCTSSTIPSSSQEKDPKIKTETSEEGSGDLDNLDAILGDLTSSDFYNNSISSNG
notes: The methods name an AlphaScreen GST Detection Kit, so a GST fusion may have been used somewhere; see SI Appendix; also called SRC3
EC50 with 18:1ω9: 3.3 µM
